This note sets out measurements from patent publication US20230416330A1, “Optimized GIP Peptide Analogues” (Antag Therapeutics ApS, priority 2019, published 2023).

No end group written: not given here. *: point of attachment. C20 diacid = O=C(O)CCCCCCCCCCCCCCCCCCC(=O)*; C16 diacid = O=C(O)CCCCCCCCCCCCCCC(=O)*

This assay deals with T1, human GIP receptor (human, UniProt P48546 22-466).
T1 sequence (looked up): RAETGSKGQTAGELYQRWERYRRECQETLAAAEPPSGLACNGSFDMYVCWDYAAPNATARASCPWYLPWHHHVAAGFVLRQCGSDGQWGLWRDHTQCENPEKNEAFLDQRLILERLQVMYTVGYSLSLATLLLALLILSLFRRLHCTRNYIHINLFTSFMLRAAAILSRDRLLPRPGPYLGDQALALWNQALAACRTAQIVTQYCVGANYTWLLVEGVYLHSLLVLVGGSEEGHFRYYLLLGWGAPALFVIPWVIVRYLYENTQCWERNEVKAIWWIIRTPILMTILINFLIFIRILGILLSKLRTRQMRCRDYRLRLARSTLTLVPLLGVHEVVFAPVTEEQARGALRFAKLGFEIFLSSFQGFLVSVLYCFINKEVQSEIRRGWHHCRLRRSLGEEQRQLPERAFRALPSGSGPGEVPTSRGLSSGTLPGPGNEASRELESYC
Nature of the assay: cell-based or functional assay.

B1: AT748 (peptide)
peptide: EGTFISDYSIAMDAIK(C16 diacid)QQDFVEWLLAQKPSSGAPPPS-OH
modifications: N-terminus assumed
SMILES: CC[C@H](C)[C@H](NC(=O)[C@H](C)NC(=O)[C@H](CC(=O)O)NC(=O)[C@H](CCSC)NC(=O)[C@H](C)NC(=O)[C@@H](NC(=O)[C@H](CO)NC(=O)[C@H](Cc1ccc(O)cc1)NC(=O)[C@H](CC(=O)O)NC(=O)[C@H](CO)NC(=O)[C@@H](NC(=O)[C@H](Cc1ccccc1)NC(=O)[C@@H](NC(=O)CNC(=O)[C@@H](N)CCC(=O)O)[C@@H](C)O)[C@@H](C)CC)[C@@H](C)CC)C(=O)N[C@@H](CCCCNC(=O)CCCCCCCCCCCCCCC(=O)O)C(=O)N[C@@H](CCC(N)=O)C(=O)N[C@@H](CCC(N)=O)C(=O)N[C@@H](CC(=O)O)C(=O)N[C@@H](Cc1ccccc1)C(=O)N[C@H](C(=O)N[C@@H](CCC(=O)O)C(=O)N[C@@H](Cc1c[nH]c2ccccc12)C(=O)N[C@@H](CC(C)C)C(=O)N[C@@H](CC(C)C)C(=O)N[C@@H](C)C(=O)N[C@@H](CCC(N)=O)C(=O)N[C@@H](CCCCN)C(=O)N1CCC[C@H]1C(=O)N[C@@H](CO)C(=O)N[C@@H](CO)C(=O)NCC(=O)N[C@@H](C)C(=O)N1CCC[C@H]1C(=O)N1CCC[C@H]1C(=O)N1CCC[C@H]1C(=O)N[C@@H](CO)C(=O)O)C(C)C
For the molecule B1, the “nM (Kb, Gaddum assay, cAMP)” value stood at 0.42 nM and the “pKb (Gaddum assay, cAMP)” value came out at 9.4.

B2: AT744 (peptide)
peptide: EGTFISDYSIAMDKIHQQDFVEWLLAQKPSSGAPPPSK(C16 diacid)-OH
modifications: N-terminus assumed
SMILES: CC[C@H](C)[C@H](NC(=O)[C@H](CO)NC(=O)[C@H](Cc1ccc(O)cc1)NC(=O)[C@H](CC(=O)O)NC(=O)[C@H](CO)NC(=O)[C@@H](NC(=O)[C@H](Cc1ccccc1)NC(=O)[C@@H](NC(=O)CNC(=O)[C@@H](N)CCC(=O)O)[C@@H](C)O)[C@@H](C)CC)C(=O)N[C@@H](C)C(=O)N[C@@H](CCSC)C(=O)N[C@@H](CC(=O)O)C(=O)N[C@@H](CCCCN)C(=O)N[C@H](C(=O)N[C@@H](Cc1c[nH]cn1)C(=O)N[C@@H](CCC(N)=O)C(=O)N[C@@H](CCC(N)=O)C(=O)N[C@@H](CC(=O)O)C(=O)N[C@@H](Cc1ccccc1)C(=O)N[C@H](C(=O)N[C@@H](CCC(=O)O)C(=O)N[C@@H](Cc1c[nH]c2ccccc12)C(=O)N[C@@H](CC(C)C)C(=O)N[C@@H](CC(C)C)C(=O)N[C@@H](C)C(=O)N[C@@H](CCC(N)=O)C(=O)N[C@@H](CCCCN)C(=O)N1CCC[C@H]1C(=O)N[C@@H](CO)C(=O)N[C@@H](CO)C(=O)NCC(=O)N[C@@H](C)C(=O)N1CCC[C@H]1C(=O)N1CCC[C@H]1C(=O)N1CCC[C@H]1C(=O)N[C@@H](CO)C(=O)N[C@@H](CCCCNC(=O)CCCCCCCCCCCCCCC(=O)O)C(=O)O)C(C)C)[C@@H](C)CC
Turning to B2, the “nM (Kb, Gaddum assay, cAMP)” value is 4.8 nM and the “pKb (Gaddum assay, cAMP)” value worked out at 8.3.

B3: AT745 (peptide)
peptide: EGTFISDYSIAMDKIK(C16 diacid)QQAFVEWLLAQKPSSGAPPPS-OH
modifications: N-terminus assumed
SMILES: CC[C@H](C)[C@H](NC(=O)[C@H](CO)NC(=O)[C@H](Cc1ccc(O)cc1)NC(=O)[C@H](CC(=O)O)NC(=O)[C@H](CO)NC(=O)[C@@H](NC(=O)[C@H](Cc1ccccc1)NC(=O)[C@@H](NC(=O)CNC(=O)[C@@H](N)CCC(=O)O)[C@@H](C)O)[C@@H](C)CC)C(=O)N[C@@H](C)C(=O)N[C@@H](CCSC)C(=O)N[C@@H](CC(=O)O)C(=O)N[C@@H](CCCCN)C(=O)N[C@H](C(=O)N[C@@H](CCCCNC(=O)CCCCCCCCCCCCCCC(=O)O)C(=O)N[C@@H](CCC(N)=O)C(=O)N[C@@H](CCC(N)=O)C(=O)N[C@@H](C)C(=O)N[C@@H](Cc1ccccc1)C(=O)N[C@H](C(=O)N[C@@H](CCC(=O)O)C(=O)N[C@@H](Cc1c[nH]c2ccccc12)C(=O)N[C@@H](CC(C)C)C(=O)N[C@@H](CC(C)C)C(=O)N[C@@H](C)C(=O)N[C@@H](CCC(N)=O)C(=O)N[C@@H](CCCCN)C(=O)N1CCC[C@H]1C(=O)N[C@@H](CO)C(=O)N[C@@H](CO)C(=O)NCC(=O)N[C@@H](C)C(=O)N1CCC[C@H]1C(=O)N1CCC[C@H]1C(=O)N1CCC[C@H]1C(=O)N[C@@H](CO)C(=O)O)C(C)C)[C@@H](C)CC
Regarding B3, the “nM (Kb, Gaddum assay, cAMP)” value turned out to be 0.49 nM and the “pKb (Gaddum assay, cAMP)” value is 9.3.

B4: AT746 (peptide)
peptide: EGTFISDYAIAMDKIK(C16 diacid)QQDFVEWLLAQKPSSGAPPPS-OH
modifications: N-terminus assumed
SMILES: CC[C@H](C)[C@H](NC(=O)[C@H](C)NC(=O)[C@H](Cc1ccc(O)cc1)NC(=O)[C@H](CC(=O)O)NC(=O)[C@H](CO)NC(=O)[C@@H](NC(=O)[C@H](Cc1ccccc1)NC(=O)[C@@H](NC(=O)CNC(=O)[C@@H](N)CCC(=O)O)[C@@H](C)O)[C@@H](C)CC)C(=O)N[C@@H](C)C(=O)N[C@@H](CCSC)C(=O)N[C@@H](CC(=O)O)C(=O)N[C@@H](CCCCN)C(=O)N[C@H](C(=O)N[C@@H](CCCCNC(=O)CCCCCCCCCCCCCCC(=O)O)C(=O)N[C@@H](CCC(N)=O)C(=O)N[C@@H](CCC(N)=O)C(=O)N[C@@H](CC(=O)O)C(=O)N[C@@H](Cc1ccccc1)C(=O)N[C@H](C(=O)N[C@@H](CCC(=O)O)C(=O)N[C@@H](Cc1c[nH]c2ccccc12)C(=O)N[C@@H](CC(C)C)C(=O)N[C@@H](CC(C)C)C(=O)N[C@@H](C)C(=O)N[C@@H](CCC(N)=O)C(=O)N[C@@H](CCCCN)C(=O)N1CCC[C@H]1C(=O)N[C@@H](CO)C(=O)N[C@@H](CO)C(=O)NCC(=O)N[C@@H](C)C(=O)N1CCC[C@H]1C(=O)N1CCC[C@H]1C(=O)N1CCC[C@H]1C(=O)N[C@@H](CO)C(=O)O)C(C)C)[C@@H](C)CC
As for B4, the “nM (Kb, Gaddum assay, cAMP)” value worked out at 0.97 nM and the “pKb (Gaddum assay, cAMP)” value worked out at 9.

B5: AT747 (peptide)
peptide: EGTFISDYSIAMDKIK(C16 diacid)QQDFVEWLLAEKPSSGAPPPS-OH
modifications: N-terminus assumed
SMILES: CC[C@H](C)[C@H](NC(=O)[C@H](CO)NC(=O)[C@H](Cc1ccc(O)cc1)NC(=O)[C@H](CC(=O)O)NC(=O)[C@H](CO)NC(=O)[C@@H](NC(=O)[C@H](Cc1ccccc1)NC(=O)[C@@H](NC(=O)CNC(=O)[C@@H](N)CCC(=O)O)[C@@H](C)O)[C@@H](C)CC)C(=O)N[C@@H](C)C(=O)N[C@@H](CCSC)C(=O)N[C@@H](CC(=O)O)C(=O)N[C@@H](CCCCN)C(=O)N[C@H](C(=O)N[C@@H](CCCCNC(=O)CCCCCCCCCCCCCCC(=O)O)C(=O)N[C@@H](CCC(N)=O)C(=O)N[C@@H](CCC(N)=O)C(=O)N[C@@H](CC(=O)O)C(=O)N[C@@H](Cc1ccccc1)C(=O)N[C@H](C(=O)N[C@@H](CCC(=O)O)C(=O)N[C@@H](Cc1c[nH]c2ccccc12)C(=O)N[C@@H](CC(C)C)C(=O)N[C@@H](CC(C)C)C(=O)N[C@@H](C)C(=O)N[C@@H](CCC(=O)O)C(=O)N[C@@H](CCCCN)C(=O)N1CCC[C@H]1C(=O)N[C@@H](CO)C(=O)N[C@@H](CO)C(=O)NCC(=O)N[C@@H](C)C(=O)N1CCC[C@H]1C(=O)N1CCC[C@H]1C(=O)N1CCC[C@H]1C(=O)N[C@@H](CO)C(=O)O)C(C)C)[C@@H](C)CC
B5: the “nM (Kb, Gaddum assay, cAMP)” value was 14 nM and the “pKb (Gaddum assay, cAMP)” value is 7.9.

B6: AT749 (peptide)
peptide: EGTFISDYSIAMDKIK(C16 diacid)QQDFVEWLLAQK-OH
modifications: N-terminus assumed
SMILES: CC[C@H](C)[C@H](NC(=O)[C@H](CO)NC(=O)[C@H](Cc1ccc(O)cc1)NC(=O)[C@H](CC(=O)O)NC(=O)[C@H](CO)NC(=O)[C@@H](NC(=O)[C@H](Cc1ccccc1)NC(=O)[C@@H](NC(=O)CNC(=O)[C@@H](N)CCC(=O)O)[C@@H](C)O)[C@@H](C)CC)C(=O)N[C@@H](C)C(=O)N[C@@H](CCSC)C(=O)N[C@@H](CC(=O)O)C(=O)N[C@@H](CCCCN)C(=O)N[C@H](C(=O)N[C@@H](CCCCNC(=O)CCCCCCCCCCCCCCC(=O)O)C(=O)N[C@@H](CCC(N)=O)C(=O)N[C@@H](CCC(N)=O)C(=O)N[C@@H](CC(=O)O)C(=O)N[C@@H](Cc1ccccc1)C(=O)N[C@H](C(=O)N[C@@H](CCC(=O)O)C(=O)N[C@@H](Cc1c[nH]c2ccccc12)C(=O)N[C@@H](CC(C)C)C(=O)N[C@@H](CC(C)C)C(=O)N[C@@H](C)C(=O)N[C@@H](CCC(N)=O)C(=O)N[C@@H](CCCCN)C(=O)O)C(C)C)[C@@H](C)CC
Consider B6, for which the “nM (Kb, Gaddum assay, cAMP)” value was 2.2 nM and the “pKb (Gaddum assay, cAMP)” value was determined as 8.7.

B7: AT750 (peptide)
peptide: EGTFISDYSIAMDKIK(C20 diacid)QQDFVEWLLAQKPSSGAPPPS-OH
modifications: N-terminus assumed
SMILES: CC[C@H](C)[C@H](NC(=O)[C@H](CO)NC(=O)[C@H](Cc1ccc(O)cc1)NC(=O)[C@H](CC(=O)O)NC(=O)[C@H](CO)NC(=O)[C@@H](NC(=O)[C@H](Cc1ccccc1)NC(=O)[C@@H](NC(=O)CNC(=O)[C@@H](N)CCC(=O)O)[C@@H](C)O)[C@@H](C)CC)C(=O)N[C@@H](C)C(=O)N[C@@H](CCSC)C(=O)N[C@@H](CC(=O)O)C(=O)N[C@@H](CCCCN)C(=O)N[C@H](C(=O)N[C@@H](CCCCNC(=O)CCCCCCCCCCCCCCCCCCC(=O)O)C(=O)N[C@@H](CCC(N)=O)C(=O)N[C@@H](CCC(N)=O)C(=O)N[C@@H](CC(=O)O)C(=O)N[C@@H](Cc1ccccc1)C(=O)N[C@H](C(=O)N[C@@H](CCC(=O)O)C(=O)N[C@@H](Cc1c[nH]c2ccccc12)C(=O)N[C@@H](CC(C)C)C(=O)N[C@@H](CC(C)C)C(=O)N[C@@H](C)C(=O)N[C@@H](CCC(N)=O)C(=O)N[C@@H](CCCCN)C(=O)N1CCC[C@H]1C(=O)N[C@@H](CO)C(=O)N[C@@H](CO)C(=O)NCC(=O)N[C@@H](C)C(=O)N1CCC[C@H]1C(=O)N1CCC[C@H]1C(=O)N1CCC[C@H]1C(=O)N[C@@H](CO)C(=O)O)C(C)C)[C@@H](C)CC
With B7, the “nM (Kb, Gaddum assay, cAMP)” value was 4.1 nM and the “pKb (Gaddum assay, cAMP)” value was found to be 8.4.
